These are literature values, as cited in paper PMC10148413.

In general, Kd refers to a measure of binding affinity in units of concentration.

The series deals with histone H3K4 methylated peptide (Homo sapiens) (UniProt P68431).

For ASH1L PHD (from UniProt Q9NR48), the Kd was 150 µM.
